What follows are sequences tested against EPHB2 (UniProt P29323) (assay: phosphorylation enrichment, bacterial display (enrichment ratio); higher = better substrate or ligand; peptides without Tyr show the background).
EPHB2, sequence (P29323 whole entry, looked up): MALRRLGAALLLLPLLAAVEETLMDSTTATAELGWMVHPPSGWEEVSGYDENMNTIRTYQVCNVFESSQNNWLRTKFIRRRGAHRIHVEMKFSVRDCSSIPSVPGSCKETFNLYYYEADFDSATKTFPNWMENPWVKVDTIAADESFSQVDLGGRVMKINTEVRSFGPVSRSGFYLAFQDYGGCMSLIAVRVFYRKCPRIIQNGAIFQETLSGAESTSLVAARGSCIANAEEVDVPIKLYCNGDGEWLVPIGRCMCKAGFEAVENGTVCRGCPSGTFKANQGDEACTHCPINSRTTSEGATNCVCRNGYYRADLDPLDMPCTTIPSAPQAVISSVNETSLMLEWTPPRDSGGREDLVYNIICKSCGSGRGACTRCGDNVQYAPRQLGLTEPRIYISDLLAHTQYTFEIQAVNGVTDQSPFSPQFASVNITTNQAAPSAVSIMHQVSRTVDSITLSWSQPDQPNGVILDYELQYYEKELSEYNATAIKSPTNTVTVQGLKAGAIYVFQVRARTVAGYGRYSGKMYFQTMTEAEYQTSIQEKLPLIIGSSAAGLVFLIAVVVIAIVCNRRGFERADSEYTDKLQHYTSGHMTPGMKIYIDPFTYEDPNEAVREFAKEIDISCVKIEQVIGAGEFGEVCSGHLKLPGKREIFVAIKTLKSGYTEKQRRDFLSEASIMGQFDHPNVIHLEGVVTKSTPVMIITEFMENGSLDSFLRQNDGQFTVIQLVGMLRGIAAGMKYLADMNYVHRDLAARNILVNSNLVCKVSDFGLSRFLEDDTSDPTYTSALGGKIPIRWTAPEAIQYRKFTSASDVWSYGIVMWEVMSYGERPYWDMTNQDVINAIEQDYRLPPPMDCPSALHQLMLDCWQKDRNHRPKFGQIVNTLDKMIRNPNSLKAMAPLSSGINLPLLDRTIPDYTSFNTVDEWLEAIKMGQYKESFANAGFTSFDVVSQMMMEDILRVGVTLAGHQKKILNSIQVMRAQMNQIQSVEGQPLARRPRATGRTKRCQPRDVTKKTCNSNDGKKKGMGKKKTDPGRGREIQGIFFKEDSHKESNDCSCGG
SLFPGYNFRFA [P2RX7_Y291_YF] was tested, and the phosphorylation enrichment was 0.46. SVTCTYSPALS [TP53_Y126_N131S] showed a phosphorylation enrichment of 0.645. LQLLGHRPVYS [CHST6_Y358_Y358H] showed a phosphorylation enrichment of 0.47. Work on TTKAKYKTPIY [PLD2_Y573_T577I] yielded a phosphorylation enrichment of 0.46. Sequence DDDPEYRKFLE [UPF3B_Y160] has a phosphorylation enrichment of 0.7. Work on NFHRGYHLQVL [CD200R1L_Y138] yielded a phosphorylation enrichment of 0.475. Sequence SKAYAYVHFDS [PABPC5_Y149_G146A] has a phosphorylation enrichment of 0.461. PTQLPYDHKWK [KIT_Y578_E583K] gave a phosphorylation enrichment of 0.299. Sequence KNKNRSKNILP [PTPN11_Y279_Y279S] has a phosphorylation enrichment of 0.568. Work on ARMTNCGLPRF [TSPAN12_Y138_Y138C_YF] yielded a phosphorylation enrichment of 0.421. TRTEAYAVSSF was tested, and the phosphorylation enrichment was 0.378. For SHLEDYPFDAE [AKR1B10_Y310_N313D], the phosphorylation enrichment was 0.554. YVGGFYGGCNE [CTSC_Y352] gave a phosphorylation enrichment of 0.553. Sequence EEGESYVCSSD [DCX_Y125] has a phosphorylation enrichment of 0.792. Sequence EERNPYYSSAR [MCCC2_Y520_G517R] has a phosphorylation enrichment of 0.5. GMEIVYVYVKK [DNAI2_Y5] was tested, and the phosphorylation enrichment was 0.665. EYKDAYTFAAD [BRDT_Y335_K336T] was tested, and the phosphorylation enrichment was 0.595. PRAGVYPEKDQ [DNM2_Y626_L621P] was tested, and the phosphorylation enrichment was 0.622. For MSDVPYVMNRG [ACAT1_Y161_N158D], the phosphorylation enrichment was 0.452. In the case of NQKGKYFNVER [ANAPC4_Y469_R465Q], the phosphorylation enrichment is reported as 0.372. In the case of STTIHYNYMCN [TP53_Y234_C229S], the phosphorylation enrichment is reported as 0.677. For FADIAYSYRHG [PAH_Y166_N167S], the phosphorylation enrichment was 0.418. Sequence FSGKAYADEEQ [CRIM1_Y826_R831Q] has a phosphorylation enrichment of 0.675. DTLASYLDKVR [KRT12_Y139_R135T] gave a phosphorylation enrichment of 0.44. In the case of KDHPDYEFQPR [SOX9_Y172_K173E_YF], the phosphorylation enrichment is reported as 0.585. With ERDYTYDELLN [EIF2S2_Y176_E177D] the phosphorylation enrichment was 0.682. Sequence EQLQSYQAEII [KRT33A_Y268] has a phosphorylation enrichment of 0.571. In the case of EARRVYRDIIH [ALDH5A1_Y175_G176R], the phosphorylation enrichment is reported as 0.386. With LLVVVYKYRCY [PSEN1_Y154_L153V] the phosphorylation enrichment was 1.22. LSGVIYVILGK [PMP22_Y153_R157G] showed a phosphorylation enrichment of 0.588. KLFFHYNPKLC [INSR_Y457] showed a phosphorylation enrichment of 0.568. LAVNPYGPPDL was tested, and the phosphorylation enrichment was 0.408. AAVDTYCRHNF [HLA-DRB1_Y107_YF] showed a phosphorylation enrichment of 0.516.

Each sequence was assayed against Fyn (UniProt P06241) in the same assay as above.
Fyn, sequence (P06241 whole entry, looked up): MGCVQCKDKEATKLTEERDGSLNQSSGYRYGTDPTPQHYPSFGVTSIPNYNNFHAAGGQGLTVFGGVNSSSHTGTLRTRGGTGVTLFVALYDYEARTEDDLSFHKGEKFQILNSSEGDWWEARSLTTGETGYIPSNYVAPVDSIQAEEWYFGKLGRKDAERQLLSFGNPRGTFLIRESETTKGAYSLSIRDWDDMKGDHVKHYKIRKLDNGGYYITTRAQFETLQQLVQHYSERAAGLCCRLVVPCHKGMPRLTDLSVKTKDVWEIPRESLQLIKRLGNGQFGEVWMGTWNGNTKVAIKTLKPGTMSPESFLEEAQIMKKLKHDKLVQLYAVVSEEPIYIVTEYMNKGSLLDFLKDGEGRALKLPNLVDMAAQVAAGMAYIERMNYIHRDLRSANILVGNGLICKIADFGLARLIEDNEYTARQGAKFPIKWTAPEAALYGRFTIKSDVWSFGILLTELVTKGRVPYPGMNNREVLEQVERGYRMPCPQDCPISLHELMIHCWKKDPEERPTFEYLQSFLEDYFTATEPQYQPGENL
With SLFPGYNFRFA [P2RX7_Y291_YF] the phosphorylation enrichment was 0.472. With SVTCTYSPALS [TP53_Y126_N131S] the phosphorylation enrichment was 0.424. In the case of LQLLGHRPVYS [CHST6_Y358_Y358H], the phosphorylation enrichment is reported as 0.535. In the case of TTKAKYKTPIY [PLD2_Y573_T577I], the phosphorylation enrichment is reported as 0.771. Work on DDDPEYRKFLE [UPF3B_Y160] yielded a phosphorylation enrichment of 0.617. For NFHRGYHLQVL [CD200R1L_Y138], the phosphorylation enrichment was 0.5. In the case of SKAYAYVHFDS [PABPC5_Y149_G146A], the phosphorylation enrichment is reported as 0.394. For PTQLPYDHKWK [KIT_Y578_E583K], the phosphorylation enrichment was 0.433. KNKNRSKNILP [PTPN11_Y279_Y279S] was tested, and the phosphorylation enrichment was 0.621. Sequence ARMTNCGLPRF [TSPAN12_Y138_Y138C_YF] has a phosphorylation enrichment of 0.322. With TRTEAYAVSSF the phosphorylation enrichment was 0.399. With SHLEDYPFDAE [AKR1B10_Y310_N313D] the phosphorylation enrichment was 0.485. With YVGGFYGGCNE [CTSC_Y352] the phosphorylation enrichment was 0.864. For EEGESYVCSSD [DCX_Y125], the phosphorylation enrichment was 0.56. Work on EERNPYYSSAR [MCCC2_Y520_G517R] yielded a phosphorylation enrichment of 0.654. GMEIVYVYVKK [DNAI2_Y5] showed a phosphorylation enrichment of 0.545. EYKDAYTFAAD [BRDT_Y335_K336T] showed a phosphorylation enrichment of 0.833. PRAGVYPEKDQ [DNM2_Y626_L621P] was tested, and the phosphorylation enrichment was 0.658. Sequence MSDVPYVMNRG [ACAT1_Y161_N158D] has a phosphorylation enrichment of 0.316. With NQKGKYFNVER [ANAPC4_Y469_R465Q] the phosphorylation enrichment was 0.462. STTIHYNYMCN [TP53_Y234_C229S] was tested, and the phosphorylation enrichment was 0.517. FADIAYSYRHG [PAH_Y166_N167S] showed a phosphorylation enrichment of 0.512. With FSGKAYADEEQ [CRIM1_Y826_R831Q] the phosphorylation enrichment was 0.522. For DTLASYLDKVR [KRT12_Y139_R135T], the phosphorylation enrichment was 0.378. Work on KDHPDYEFQPR [SOX9_Y172_K173E_YF] yielded a phosphorylation enrichment of 0.448. ERDYTYDELLN [EIF2S2_Y176_E177D] gave a phosphorylation enrichment of 0.631. Work on EQLQSYQAEII [KRT33A_Y268] yielded a phosphorylation enrichment of 0.516. Sequence EARRVYRDIIH [ALDH5A1_Y175_G176R] has a phosphorylation enrichment of 0.352. LLVVVYKYRCY [PSEN1_Y154_L153V] gave a phosphorylation enrichment of 0.703. LSGVIYVILGK [PMP22_Y153_R157G] was tested, and the phosphorylation enrichment was 0.828. KLFFHYNPKLC [INSR_Y457] showed a phosphorylation enrichment of 0.384. For LAVNPYGPPDL, the phosphorylation enrichment was 0.708. Work on AAVDTYCRHNF [HLA-DRB1_Y107_YF] yielded a phosphorylation enrichment of 0.415.
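Further: 11-residue human phosphosite peptides and single-mutation variants displayed on the E. coli surface, counted by deep sequencing, each peptide's frequency after selection divided by its frequency in the unselected input library; frequency after pTyr selection over input frequency; kinase dosed for 20-30% of maximal phosphorylation in three min.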
